In assay [1] the target is Torpedo californica acetylcholinesterase (Torpedo californica) (UniProt P04058). As to the kind of experiment: kinetics of approach to equilibrium by enzyme activity.
The target is the same in assay [2]. As to the kind of experiment: titration of enzyme activity.
Assay [3] has as its target T1, Torpedo californica acetylcholinesterase (Torpedo californica, UniProt P04058 22-564). As to the kind of experiment: titration of enzyme activity.
In assay [4] the target is T1, Torpedo californica acetylcholinesterase. Kind of assay: kinetics of approach to equilibrium by enzyme activity.

The record followed here is publication PMC2742391 (Protein Engineering, Design and Selection, 2009).

In the case of “fasciculin double mutant T8V/T9N (natural protein)”, in assay [1], the dissociation constant (Kd) turned out to be 0.6 nM, the off-rate (koff) was determined as 0.0505 s⁻¹ and the kon is 8.5e+07 M⁻¹ s⁻¹. The molecule further showed a Kd in assay [2] of 0.64 nM.
The matching figures for “fasciculin mutant H29R (natural protein)”: 0.03 nM, 0.0127 s⁻¹, 3.9e+08 M⁻¹ s⁻¹ and 0.052 nM.
Consider “fasciculin mutant K32R (natural protein)”, for which the dissociation constant (Kd) in assay [1] came out at 2.6 nM; in assay [2], 2.3 nM. For the same molecule, in assay [1], the dissociation rate constant (koff) came out at 0.09 s⁻¹.
In assay [1], “fasciculin mutant R11K (natural protein)” returned a Kd of 0.63 nM, an off-rate (koff) of 0.0293 s⁻¹ and an association rate constant (kon) of 4.7e+07 M⁻¹ s⁻¹. This molecule had a Kd in assay [2] of 0.53 nM.
Molecule fasciculin mutant T8V (natural protein) registered a Kd in assay [2] of 0.125 nM.
Same read-out and setting: with fasciculin mutant T9N (natural protein) the figure was 2.8 nM.

B1: recombinant wild-type fasciculin-2 (natural protein)
chain: TMCYSHTTTSRAILTNCGENSCYRKSRRHPPKMVLGRGCGCPPGDDNLEVKCCTSPDKCNY
In assay [3], B1 yielded a dissociation constant Kd of 0.31 nM. In addition, in assay [4], binding was characterised by a dissociation constant (Kd) of 0.37 nM, the dissociation rate constant (koff) amounted to 0.025 s⁻¹ and the kon was 6.8e+07 M⁻¹ s⁻¹.
